# Results as given in the supplement of paper PMC9170038.
# Tested on: MS2 coat protein
# Test: apparent KD of MS2 coat protein; designed switch direction (-1 OFF switch, 1 ON switch): 1; higher = weaker reporter binding
# Procedure, shortened: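 Designed RNA switches sharing common flanks were transcribed on Illumina chips by stalled E. coli RNA polymerase. They were titrated with SNAP-549-labelled MS2 coat protein, from 0.7 or 1.5 nM doubling to 3 µM, in Tris-HCl pH 7.5 buffer with KCl, MgCl2, BSA, DTT, tRNA and Tween-20. Titrations ran without input, with 200 uM small-molecule ligand, or with an oligonucleotide input. The apparent KD of each design is the median over its clusters, after curve-fitting of normalised cluster fluorescence.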
# [1] = Eterna round: R95, input ligand: microRNA oligo, concentration not stated
# [2] = Eterna round: R95, input ligand: FMN 200 uM
# [3] = Eterna round: R95, input ligand: none
# [4] = input ligand: microRNA oligo, concentration not stated
Sequence,apparent KD of MS2 coat protein [1] [nM],apparent KD of MS2 coat protein [2] [nM],apparent KD of MS2 coat protein [3] [nM],apparent KD of MS2 coat protein (input ligand: FMN 200 uM) [nM],apparent KD of MS2 coat protein [4] [nM],apparent KD of MS2 coat protein (input ligand: none) [nM]
UUCUUACAUGAGGAUCACCCAUGUGUUGUCGUGGGAGGAUAUCCUUGUUCGGUGGCGUUGGGAGAAGGCCUAUGUU [× ×•×ª×• ×ž×“×™× ×” × ×—×ª-20] (puzzle: Same State 1),40.4,,,,,
AAAAUACAUGAGGAUCACCCAUGUAGAAACUACACAGGAUAUCGGACGGCUGUAGCCAAACGAGAAGGGUGAACCC [Ramazaza] (puzzle: Same State 1),60.8,90.8,92,,,
"CCCGCGUUUCGCGCCUACAUGAGGAUCACCCAUGUUUGUAGGCAGGAUAUCGUCCGCUCUGCGGGCGAGAAGGGCUGUCGUGGU [salish99_SSNG3_R04_030] (Eterna round: R96, puzzle: Same State NG 3)",,,,65.7,53.5,70.1
"AGAUCAUGACGAGGAUAUCCGACAUGAGGAUCACCCAUGUAUGUCGGAGGACGGAAACGUCCAAAGGAGAAGGCGUCGUGGUCA [Mat - Same State NG 2 - JL mod - D37] (Eterna round: R96, puzzle: Same State NG 2)",,,,17.7,72.4,85.3
"GAAAAGACAUGAGGAUCACCCAUGUGGUAGACAGCUAGACGCAAGGAUAUGCAUGUGAUUCUCAUGCAGAAGGUGCUUCUAGGU [Eternabot solution 12] (Eterna round: R96, puzzle: Same State NG 3)",,,,37.6,53.3,68.6
CGGGUACAUGAGGAUCACCCAUGUUGGAGUAAUGCAGGAUAUGUGAGACGAGAAGAUAAAACAGAAGGGCAAGGAG [JR_SS!_Sub009] (puzzle: Same State 1),95,37.4,77.6,,,
"AAAAUAAGCCCUUGCACAUGAGGAUCACCCAUGUUCGGUUCACAGGAUAUCUAGUCAAACGGGCUGGAGAAGGGUGGCAAGGAC [Xequusceus] (Eterna round: R96, puzzle: Same State NG 3)",,,,67.7,278,227
GUAAAACAUGAGGAUCACCCAUGUAAUAUAAUGGGAGGAUAUCUGAUUUAAUUUAAUUUAAGAGAAGGCCUAAAUG [Mat - Same State 1 - Mod of Eli - D57] (puzzle: Same State 1),268,39.6,372,,,
"AGCUAAUACGAAGGAUAUACUGACAUGAGGAUCACCCAUGUCUACAUGAUUUAUUGUGAUCACAUGUAGAAGGUCGUACUAACA [SameState NG2 #23] (Eterna round: R96, puzzle: Same State NG 2)",,,,26.8,62.3,79.8
"ACAUGAGACUCAGGAUAUGUUGUACCUACAUGUGACAUGAGGAUCACCCAUGUGGUAAGUAUGAUACAGAAGGGAGAGAUAUGU [Equivalance 65 - Jieux - Same State NG 2] (Eterna round: R96, puzzle: Same State NG 2)",,,,20.5,22.1,43.6
"GAAAAGCAGAGAGGAUAUGUCACUCAUGCCGUGACACAUGAGGAUCACCCAUGUUCAAUCCGGCCGCAGAAGGCUCCGCGAAAA [Eternabot solution 25] (Eterna round: R96, puzzle: Same State NG 2)",,,,8.9,9.13,10.8
"CUGAGCGAUCAAGGAUAUCACGUCGUUUAGACGUGAGAAGGUGAUAAUUACAUGAGGAUCACCCAUGUAUAACAUGAAGCUCAG [SSNG1/9-A3] (Eterna round: R96, puzzle: Same State NG 1)",,,,14,16.4,21
"UUAUCCUUUUUUUACAUGAGGAUCACCCAUGUUUUUCUUACGUAGGAUAUCGUUGUUUUUUUUUACGAGAAGGACGUAGUAUGU [JR_SSND3_Sub062] (Eterna round: R96, puzzle: Same State NG 3)",,,,35.8,30.4,36.5
"AGGCUCAGACGAGGAUAUGAUCAUGGCGCUUCGGCGCAUACAUGAGGAUCACCCAUGUAAAGUGAUCAGAAGGCGUCUGAGCCA [SSNG2/7-A1] (Eterna round: R96, puzzle: Same State NG 2)",,,,12.3,14.5,14.2
"GUUACAUGAGGAUCACCCAUGUAUGUGUGGGAGUAAGUGUCUUAGGAUAUCUAUCAUUGAAUUUAAGAGAAGGAAGAUUGUUGU [JMF's solution 92] (Eterna round: R96, puzzle: Same State NG 3)",,,,,81.3,
"UGUUGUAUUACAGGAUAUCUAUUAGUGUUAUUUAGAGAAGGGUAUUCACAUGAGGAUCACCCAUGUAUAUACGAGGAAGUUGUG [JMF's solution 90] (Eterna round: R96, puzzle: Same State NG 1)",,,,65.1,37.4,57.4
UUGGUGUAGAUACAGGAUAUGUUGAUUGUAACAUGAGGAUCACCCAUGUAUCUAUGAGAUUAAAUGCAGAAGGGUGCACAUCACU [salish99_ss2_r3_090] (puzzle: Same State 2),92.9,209,276,,,
"GGUAGGUUACUACCAAUCACAUGAGGAUCACCCAUGUUGUGGGAGGAUAUGGUACCUAUUUGGUACCAGAAGGCCUUAUUAAUU [Fiskers NG3ss - 11] (Eterna round: R96, puzzle: Same State NG 3)",,,,74.8,55.6,85.2
"UCAGUCAUGUAAGGAUAUGCAGCCGAAACGGCUGCAGAAGGUACUAUAAUUACAUGAGGAUCACCCAUGUUAUAAAAUAAAUAU [Mat - Same State NG 1 - JL mod - D65] (Eterna round: R96, puzzle: Same State NG 1)",,,,18.4,36,76.6
"GGACGUCAAUAUGAAUUCCACAUGAGGAUCACCCAUGUUCAUGAGGAUAUGGAUCCUAAUUGGAUCCAGAAGGCAUGGACGUCC [Fiskers NG3ss - 38] (Eterna round: R96, puzzle: Same State NG 3)",,,,81.9,163,194
"UUGCUCGUGUGAGGAUAUGCCGCCGUUUCGGCUGCAGAAGGUACUAUAAUACAUGAGGAUCACCCAUGUCUCUGUUGUUUCGUG [salish99_SSNG1_r04_932] (Eterna round: R96, puzzle: Same State NG 1)",,,,,23.7,
"GUUACAUGAGGAUCACCCAUGUAUGUGUGGGAGUAAGUGUCUUAGGAUAUCUGUUAUUUAAGUUAAGAGAAGGAAGAUUGUUGU [JMF's solution 42] (Eterna round: R96, puzzle: Same State NG 3)",,,,92.8,45.6,82.4
GUACUACAUGAGGAUCACCCAUGUACAAAGGUACGAGGAUAUGCAUGUACGAAAGUAUAUGCAGAAGGCGUAGUAC [Pin2Pin #2] (puzzle: Same State 1),23.3,,,,,
